In general, EC50 refers to the concentration needed to bring the measured effect to its halfway point. Low values mean an effect from little substance, high ones a need for much substance.

We go through three molecules from patent US20160052996A1 (NEURIMMUNE, published 2016).

Where two headings read alike, the source gives them in different places.

Experiment [1] deals with JCV (JC virus produced by infected SVG-A cells) (JC virus (JCV), UniProt P03089 1-354). The experiment can be described thus: cell-based or functional assay.
For experiment [2], the target named is T1, JCV VP1 VLP (JC virus (JCV), Mad-1 strain, UniProt P03089 1-354).
T1 construct: also called JCV VP1 VLPs; JCV VP1 (coating with reassociation buffer)
The experiment can be described thus: direct ELISA, plate coated with antigen at 5 µg/ml in reassociation buffer (VLP); EC50 by non-linear regression (GraphPad Prism). (In general: ELISA stands for enzyme-linked immunosorbent assay.)

Experiment [3] has as its target T2, VP1 GCN (N74S R75K T128A L158V K345R Q350deletion T351deletion) (JC virus (JCV), UniProt P03089 1-354).
T2 construct: whole, on cells
The experiment can be described thus: flow cytometry, transfected 293TT cells. (Flow cytometry measures light scatter and fluorescence of single cells or particles in a stream.)

Experiment [4] has as its target T3, BSA (Sigma-Aldrich) (bovine, UniProt P02769 25-607).
T3 construct: also called bovine serum albumin
The experiment can be described thus: direct ELISA.

Experiment [5] concerns the target T1, JCV VP1 VLP. The experiment can be described thus: direct ELISA, plate coated with antigen at 5 µg/ml in reassociation buffer (VLP); EC50 by non-linear regression (GraphPad Prism). This is another data set of the same source.
The target in experiment [6] is T4, JCV VP2 protein (Bioclone Inc) (JC virus (JCV), UniProt P03095 1-344).
T4 sequence (looked up): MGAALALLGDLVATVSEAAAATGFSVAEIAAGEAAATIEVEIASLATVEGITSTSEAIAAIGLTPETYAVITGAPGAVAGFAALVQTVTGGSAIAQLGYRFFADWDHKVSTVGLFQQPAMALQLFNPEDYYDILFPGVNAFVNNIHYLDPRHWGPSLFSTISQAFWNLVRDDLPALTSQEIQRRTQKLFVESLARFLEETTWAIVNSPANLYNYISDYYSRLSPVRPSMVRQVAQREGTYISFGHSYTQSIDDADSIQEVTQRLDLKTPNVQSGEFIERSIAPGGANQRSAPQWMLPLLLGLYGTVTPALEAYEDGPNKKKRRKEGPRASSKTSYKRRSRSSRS
The experiment can be described thus: direct ELISA, antigens coated at 1 µg/mL; bar groups labelled 100 nM, 20 nM, 4 nM, 0.8 nM.

The target in experiment [7] is T5, JCV VP3 protein (Bioclone Inc) (JC virus (JCV), UniProt P03095 120-344).
T5 sequence: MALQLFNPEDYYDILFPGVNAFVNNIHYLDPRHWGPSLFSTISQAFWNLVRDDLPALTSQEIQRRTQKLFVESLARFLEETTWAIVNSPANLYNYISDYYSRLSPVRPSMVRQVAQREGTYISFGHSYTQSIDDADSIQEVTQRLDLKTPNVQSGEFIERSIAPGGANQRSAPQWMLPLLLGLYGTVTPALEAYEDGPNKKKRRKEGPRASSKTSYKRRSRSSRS
The description is as above.

T3 sequence (P02769 25-607 limits assumed): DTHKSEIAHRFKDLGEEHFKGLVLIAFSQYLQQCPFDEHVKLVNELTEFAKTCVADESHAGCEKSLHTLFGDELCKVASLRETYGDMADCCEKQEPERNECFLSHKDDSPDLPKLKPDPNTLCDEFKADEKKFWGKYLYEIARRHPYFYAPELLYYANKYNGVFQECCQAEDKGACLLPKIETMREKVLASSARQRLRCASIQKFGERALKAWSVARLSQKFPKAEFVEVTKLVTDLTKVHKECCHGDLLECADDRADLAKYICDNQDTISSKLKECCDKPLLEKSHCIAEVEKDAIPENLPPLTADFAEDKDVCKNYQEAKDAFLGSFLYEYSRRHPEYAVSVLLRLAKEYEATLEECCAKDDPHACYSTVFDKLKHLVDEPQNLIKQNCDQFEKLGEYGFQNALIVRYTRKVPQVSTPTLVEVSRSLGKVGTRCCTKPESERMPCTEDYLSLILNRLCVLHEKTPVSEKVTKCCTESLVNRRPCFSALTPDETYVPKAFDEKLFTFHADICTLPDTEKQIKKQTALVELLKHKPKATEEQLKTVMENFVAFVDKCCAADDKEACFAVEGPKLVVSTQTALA

B1: NI-307.98D3 (antibody, V domains shown)
VH: EVQLVESGGGVVQPGRSLRLSCAASGFTFSSSAMHWVRQAPGKGLEWVAVISYDGNNQLYADSVKGRLTISRDNSKNALYLQLNSLRTEDTAVYFCARDGGGYSFGTYFFDFWGQGTLVTVSS
VL: DIQMTQSPSSLSASVGERVTITCRASQRISNYLNWYQQKPGKAPKLLIYAASTLQSGVPSRFSGSGSGTDFTLTISSLQPEDFATYYCQQSYSSPPTFGPGTKVDIK
On to B1, for which the “IC50 of neutralization of the JCV infection of SVG-A cells” value in experiment [1] was determined as 0.8 ng/mL. This molecule registered a concentration giving a half-maximal response (EC50) in experiment [2] of 0.00057 nM.

B2: NI-307.58C7 (antibody, V domains shown)
VH: EVQLVESGGGLVKPGGSLRLSCAASGFTFSDYYVNWIRQAPGKGLEWVACISSSGRTIHYADSVKGRFTISRDNAKNSLYLQMNSLRAEDTAFYYCARDLDKAATGRPYFDYWGQGTLVTVSS
VL: not shown
For B2, in experiment [3], the binding result is listed as “binds”.

B3: NI-307.19F8 (antibody, V domains shown)
VH: EVQLVESGGGLVKPGGSLRLSCAASGFTFSSYYMNWVRQAPGKGLEWVSSISSSSSYIYYADSVKGRFTISRDNAKNSLYLQMNSLTAEDTAVYYCARDPRLQLWFMFDYWGQGTLVTVSS
VL: QPVLTQPPSASASLGASVTLTCTLSSGYSNYKVDWYQQRPGEGPRFVMRVGTGGIVGSKGDGIPDRFSVLGSGLNRYLTIKDIQEEDESDYHCGADHGSGSNFVYVFGTGTKVTVL
In the case of B3, the figures for the binding result in experiment [4], in experiment [6] and in experiment [7] were “no binding”, “no binding (tested: 100 nM)” and “no binding (tested: 100 nM)”, respectively. The molecule also had an EC50 in experiment [5] of 6.68 nM.
